Measurements reported in the supplement of paper PMC9170038.

Tested on: MS2 coat protein
Assay: apparent KD of MS2 coat protein; designed switch direction (-1 OFF switch, 1 ON switch): -1; higher = weaker reporter binding
In short: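 Three titration conditions were used: no input, 200 uM small-molecule ligand, and an oligonucleotide input. In each, SNAP-549-labelled MS2 coat protein was raised from 0.7 or 1.5 nM, doubling, to 3 µM over designed RNA switches transcribed on Illumina chips by stalled E. coli RNA polymerase. Curve fits of normalised cluster fluorescence gave values whose per-design median over clusters is the apparent KD.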

[1] = input ligand: microRNA oligo, concentration not stated
[2] = Eterna round: R95, input ligand: FMN 200 uM
[3] = Eterna round: R95, input ligand: microRNA oligo, concentration not stated
[4] = Eterna round: R95, input ligand: none

Row | Sequence | apparent KD of MS2 coat protein (input ligand: FMN 200 uM) | apparent KD of MS2 coat protein [1] | apparent KD of MS2 coat protein (input ligand: none) | apparent KD of MS2 coat protein [2] | apparent KD of MS2 coat protein [3] | apparent KD of MS2 coat protein [4]
1 | GCAGCAAACUCUAUUAAAACCACAUGAGGAUCACCCAUGUCUCAGGAUAUGGUCUGGAUUACAGGCCAGAAGGGAGAAAGCUGC [Eli exng3 - 054] (Eterna round: R96, puzzle: Exclusion NG 3) | 15 nM | 10.9 nM | 15.1 nM |  |  | 
2 | GCAGCAUAGUAUACUUACUGUUACAUGAGGAUCACCCAUGUACAGGAUAUGGUCUGGAUUACAGGCCAGAAGGGUACAAGCUGC [Eli exng3 - 024] (Eterna round: R96, puzzle: Exclusion NG 3) | 10.3 nM | 8.12 nM | 11.7 nM |  |  | 
3 | GCAGCAUAGUCGGAAACGACAGAACAUGAGGAUCACCCAUGUUAGGAUAUGGUCUGGAUUACAGGCCAGAAGGGACAAAGCUGC [Eli exng3 - 009] (Eterna round: R96, puzzle: Exclusion NG 3) | 34.8 nM | 29.7 nM | 39.9 nM |  |  | 
4 | GCAGCUGCUCUAGGAUAUAUUUUAGCACAUGAGGAUCACCCAUGUGGGACCACAACAGCGCAAGAAUAGAAGGAGACAGCAGUA [Eternabot solution 32] (Eterna round: R96, puzzle: Exclusion NG 2) | 506 nM | 125 nM | 129 nM |  |  | 
5 | GCAUCCAAAGUGAGGAUAUACCUCUGGAUACAGAGGUAGAAGGCACAUGAGGAUCACCCAUGUUUCUAGGAUGC [Fiskers BMX 4 - 37] (puzzle: Brourd's mod of Exclusion 4) |  |  |  | 21.2 nM | 13.3 nM | 13.9 nM
6 | GCAUCGGCAGGAUAUACGCCGUAUGACAUGAGGAUCACCCAUGUUCCCGAGUCACAGAAAGUAGAAGGGCUGGAUA [Eternabot (L2) Solution 70] (Eterna round: R97, puzzle: Exclusion 5) | 236 nM |  | 182 nM |  |  | 
7 | GCAUUUUGGUCGUCUUAUAACAUGAGGAUCACCCAUGUGUUGAGCCCAACUUAUUGUACUCAUGCUAUGGCCUGAUG [Eternabot (L2) Solution 27] (Eterna round: R97, puzzle: Sensor, turn-off variant 1) | 81.2 nM |  | 84.2 nM |  |  | 
8 | GCCAGAGCAGGAUAUUCAUUAUAUCACAUGAGGAUCACCCAUGUCCAGCGAAAGCUGGAGGGAGAAGGGCUCUGGC [Fiskers Ex 5 - 24] (puzzle: Exclusion 5) |  |  |  | 102 nM | 225 nM | 140 nM
9 | GCCAGAGGAGGAUAUCUAAUAUAUCACAUGAGGAUCACCCAUGUCCAGCGAAAGCUGGAGGGAGAAGGCCUCUGGC [Fiskers Ex 5 - 23] (Eterna round: R96, puzzle: Exclusion 5) | 74.8 nM | 172 nM | 252 nM |  |  | 
10 | GCCAGAGGAGGAUAUCUAAUAUAUCACAUGAGGAUCACCCAUGUCCAGCGAAAGCUGGAGGGAGAAGGCCUCUGGC [Fiskers Ex 5 - 23] (puzzle: Exclusion 5) |  |  |  | 46 nM | 98.2 nM | 78.2 nM
11 | GCCCGGCGUGUAGGAUAUGGUUCCGUUUCGGUUCCAGAAGGACAUGAGGAUACAUGAGGAUCACCCAUGUGGUCGUCACCGGGC [salish99_ExNG1_r04_402] (Eterna round: R96, puzzle: Exclusion NG 1) | 37.4 nM | 26 nM | 38.7 nM |  |  | 
12 | GCCCGGGCAGGAUAUACAAUGAAGUUGAGAAAUCGGCUUCGACAUGAGGAUCACCCAUGUAGAAGGGCCCGGGC [-36.9, -34.6 kcal, A 28% 3] (Eterna round: R97, puzzle: Exclusion 2) | 17.6 nM |  | 14.6 nM |  |  | 
13 | GCCCGGGCAGGAUAUACGUGGCCCGGGUAACCGGGCCUCAGACAUGAGGAUCACCCAUGUAGAAGGGCCCGGGC [-44, -43.8 kcal, A 22%] (Eterna round: R97, puzzle: Exclusion 2) | 18.1 nM |  | 18.3 nM |  |  | 
14 | GCCGAAAAUGUGAGGAUAUACCUAUGGAAACAUAGGUAGAAGGCACAUGAGGAUCACCCAUGUUCCUCAUCGGC [Mat - Exclusion 4 - Eli Mod - D17] (Eterna round: R97, puzzle: Brourd's mod of Exclusion 4) | 729 nM |  | 120 nM |  |  | 
15 | GCCGAUUAAGUGAGGAUAUACCUAUGGAUACAUAGGUAGAAGGCACAUGAGGAUCACCCAUGUAUCCUAUCGGC [Eli bmx4 4.27] (Eterna round: R97, puzzle: Brourd's mod of Exclusion 4) | 517 nM |  | 59.8 nM |  |  | 
16 | GCCGGAUAAGUGAGGAUAUGCCUAUGGAUACGUAGGCAGAAGGCACAUGAGGAUCACCCAUGUACCUCUCCGGC [JL-BMX4-4.25 Eli mod] (Eterna round: R97, puzzle: Brourd's mod of Exclusion 4) | 116 nM |  | 17.5 nM |  |  | 
17 | GCCGUACAAGGAUAUACAUGAGGAUCACCCAUGUGUCUCCUCGAGAGCAAACGGCUCUGUAGAAGGUGUCGUAA [EX3 C.20] (Eterna round: R97, puzzle: Exclusion 3) | 16.5 nM |  | 15.6 nM |  |  | 
18 | GCCUAAGCAGGAUAUUCAAUAUGUCACAUGAGGAUCACCCAUGUCCAGCGAAAGCUGGAGGGAGAAGGGCUUAGGC [Mat - Exclusion 5 - Eli mod - D100] (puzzle: Exclusion 5) |  |  |  | 21.1 nM | 101 nM | 106 nM
19 | GCCUACCAGCUAGGAUAUGCAGUACAGUAAAAUGUAGAAGGAGCACGAUCCAGACAUGAGGAUCACCCAUGUGGGCGGCAGGCA [Raartive] (Eterna round: R96, puzzle: Exclusion NG 1) | 19.7 nM | 17 nM | 22.8 nM |  |  | 
20 | GCCUCACAUGAGGAUCACCCAUGUCAGGAUAUACCCAUCCAGCGAAAUUAAAGCUGUAGUAGAAGGGACAUGCA [Bevebeis] (Eterna round: R97, puzzle: Exclusion 1) | 53.7 nM |  | 18.4 nM |  |  | 
21 | GCCUGCUGGCGAGGAUAUCCUGUGCGGUUCCGGCUCGUGUCUGUUACAUGAGGAUCACCCAUGUGGGAGAAGGUGUCUGUGGCC [Design 99] (Eterna round: R96, puzzle: Exclusion NG 2) | 17.7 nM | 15.7 nM | 22.4 nM |  |  | 
